{"source": "the nanobody polyreactivity screen of Harvey et al. (2022)"}
{"experiment": "yeast display, Sf9 membrane polyspecificity reagent, FACS + sequencing; frameworks hold sequencing errors", "in_short": "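In a synthetic yeast display library (Saccharomyces cerevisiae BJ5465), nanobody expression was induced with galactose for 36–48 hours. FACS gates were set low and high (top ~1%) using anti-HA fluorescence for expression and streptavidin fluorescence for binding of the Sf9 membrane reagent. Each polyreactivity label is drawn from the gate of origin.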"}
{"sequence": "QVQLVESGGGLVQAGGSLRLSCAASGGIFAPNAMGWYRQAPGKERELVAAISTGGGSTRYADSVKGRFTISRDNAKNTVYLQMNSLKPEDTAVYYCAATRVGVRRMDYWGQGTQVTVSS", "polyreactivity (PSR sort gate)": "low polyreactivity"}
{"sequence": "QVQLVESGGGLVQAGGSLRLSCAASGGIFAPYAMGWYRQAPGKERELVAAISSSDGSTYYADSVKGSFTISRDNAKNTVYLQMNSLKPEDTAVYYCAADYREDYGYWGQGTQVTVSS", "polyreactivity (PSR sort gate)": "low polyreactivity"}
{"sequence": "QVQLVESGGGLVQAGGSLRLSCAASGGIFAPYAMGWYRQAPGKERELVADITSDGGSTYYADSVKGRFTISRDNAKNTVYLQMNSLKPEDTAVYYCAAEQRYCWWGHPGDYWGQGTQVTVSS", "polyreactivity (PSR sort gate)": "low polyreactivity"}
{"sequence": "QVQLVESGGGLVQAGGSLRLSCAASGGIFAWYAMGWYRQAPGKERELVAAIDHSGGSTYYADSVKGRFTISRDNAKNTVYLQMNSLKPEDTAVYYCNAGYYGYWEKYDYWGQGTQVTVSS", "polyreactivity (PSR sort gate)": "low polyreactivity"}
{"sequence": "QVQLVESGGGLVQAGGSLRLSCAASGGIFDIYAMGWYRQAPGKERELVAAIRGSGGRTYYADSVKGRFTISRDNAKNTVYLQMNSLKPEDTAVYYCAARPSIVTGLRYGYWGQGTQVTVSS", "polyreactivity (PSR sort gate)": "high polyreactivity"}
{"sequence": "QVQLVESGGGLVQAGGSLRLSCAASGGIFDTNAMGWYRQAPGKEREFVAAITGSGGSTYYADSVKGRFTISRDNAKNTVYLQMNSLKPEDTAVYYCAAPLSYYWVYIVRYGYDYWGQGTQVTVSS", "polyreactivity (PSR sort gate)": "low polyreactivity"}
{"sequence": "QVQLVESGGGLVQAGGSLRLSCAASGGIFDTYAMGWYRQAPGKERELVAAISRRGGNTYYADSVKGRFTIARDNAKNTVYLQMNSLKPEDTAVYYCAAYYHGRMDYWGQGTQVTVSS", "polyreactivity (PSR sort gate)": "high polyreactivity"}
{"sequence": "QVQLVESGGGLVQAGGSLRLSCAASGGIFDTYVMGWYRQAPGKETELVAAISSSGSTTYADSVKGRFTISRDNAKNTVYLQMNSLKPEDTAVYYCNADYSTIWRYDYWGQGTQVTVSS", "polyreactivity (PSR sort gate)": "low polyreactivity"}
{"sequence": "QVQLVESGGGLVQAGGSLRLSCAASGGIFDYYAMGWYRQAPGKERELVAAIRGGGSTNYADSVKGRFTISRDNAKNTVYLQMNSLKPEDTAVYYCAKRAGPEYDYWGQGTQVTVSS", "polyreactivity (PSR sort gate)": "low polyreactivity"}
{"sequence": "QVQLVESGGGLVQAGGSLRLSCAASGGIFEAYVMGWYRQAPGKERELVAAISFRGGSTYYADSVKGRFTISRDNAKNTVYLQMNSLKPEDTAVYYCAADYRHQGYDYWGLGTQVTVSS", "polyreactivity (PSR sort gate)": "low polyreactivity"}
{"sequence": "QVQLVESGGGLVQAGGSLRLSCAASGGIFEAYVMGWYRQAPGKERELVAAISFRGGSTYYADSVQGRFTISRVNAKNSVYLQMNSLKPEDTAVYYCAADYRHQGYDYWGQGTQVTVSS", "polyreactivity (PSR sort gate)": "low polyreactivity"}
{"sequence": "QVQLVESGGGLVQAGGSLRLSCAASGGIFEYYAMGWYRQAPGKERELVAAINTGGNTYYADSVKGRFTISRDNAKNTVYLQMNSLKPEDTAVYYCATDPIWYGGYLSGTDYDYWGQGTQVTVSS", "polyreactivity (PSR sort gate)": "low polyreactivity"}
{"sequence": "QVQLVESGGGLVQAGGSLRLSCAASGGIFFINAMGWYRQAPGKERELIAAISISDGSTYYADSVKGRFTISRDNAKNTVYLQMNSLKTEDTAVYYCAADYDVLRLGYARIPLYDYWGQGTQVTVSS", "polyreactivity (PSR sort gate)": "low polyreactivity"}
{"sequence": "QVQLVESGGGLVQAGGSLRLSCAASGGIFFPNAMGWYRQAPGKERELGAAISWSAGSTYYADSVKGRFTISRDNAKNTVYLQMNSLKPEDTAVYYCAAAGSNYTVWYGYYYWGQGTQVTVSS", "polyreactivity (PSR sort gate)": "low polyreactivity"}
{"sequence": "QVQLVESGGGLVQAGGSLRLSCAASGGIFFPNAMGWYRQAPGKERELVAAISWSAGSTYYADSVKGRFTISRDNAKNTVYLQMNSLKPEDTAVYYCAAAGSNYTVWYGYYYWGQGTQVTVSS", "polyreactivity (PSR sort gate)": "low polyreactivity"}
{"sequence": "QVQLVESGGGLVQAGGSLRLSCAASGGIFFRNDMGWYRQAPGKERELVAAISSNGGSTYYADSVKGRFTISRDNAKNTVYLQMNSLKPEDTAVYYCNTGVYSSGGPLDYWGQGTQVTVSS", "polyreactivity (PSR sort gate)": "low polyreactivity"}
{"sequence": "QVQLVESGGGLVQAGGSLRLSCAASGGIFFSYAMGWYRQAPGKERELVAAIRTNGGTTYYADSVKGRFTISRDNAKNTVYLQMNRLKPEDTAVYYCAALPGGYYDRGEYDYWGQGTQVTVSS", "polyreactivity (PSR sort gate)": "low polyreactivity"}
{"sequence": "QVQLVESGGGLVQAGGSLRLSCAASGGIFGDYAMGWYRQEPGKERELVAAINSGDSTNYADSVKGRFTISRDNAKNTVYLQMNSLKPEDTAVYYCNARGYWVYYVEYDYWGQGTQVTVSS", "polyreactivity (PSR sort gate)": "low polyreactivity"}
{"sequence": "QVQLVESGGGLVQAGGSLRLSCAASGGIFGKYVMGWYRQAPGKERELVAGISRSAGITYYADSVKGRFTISRDNAKNTVYLQMNSLKPEDTAVYYCNARAWSYPSYHVGYDYWGQGTQVTVSS", "polyreactivity (PSR sort gate)": "high polyreactivity"}
{"sequence": "QVQLVESGGGLVQAGGSLRLSCAASGGIFGWYAMGWYRQAPGKERELVATITWRGGRTYYADSVKGRFTISRDNAKNTVYLQMNSLKPEDTAVYYCNAEWLWYDAGYRYTIRDSWGQGTQVTVSS", "polyreactivity (PSR sort gate)": "low polyreactivity"}
{"sequence": "QVQLVESGGGLVQAGGSLRLSCAASGGIFGYNMGWNRQAPGKEWELVAAITSGGITNYADSVKGRFTISRDNAKNTVYLQMNSLKPQDTAVNYCNRSPGGGKETVLGGDYWGQGTQVTVSS", "polyreactivity (PSR sort gate)": "low polyreactivity"}
{"sequence": "QVQLVESGGGLVQAGGSLRLSCAASGGIFIANAMGWYRQAPGKERELVAAISSSGGSTYYADSVKGRFTISRDNAKNTVYLQMNSLKPEDTAVYYCAARRSVRRGGDYYWGQGTQVTVSS", "polyreactivity (PSR sort gate)": "high polyreactivity"}
{"sequence": "QVQLVESGGGLVQAGGSLRLSCAASGGIFIFYAMGWYRQATGKERELVAASSNVSSTNYADSVKGRFTISRDNAKNTVYLQMNSLKPEDTAVYYCAAYYYYFYHKVIWYELDYWGQGTQVTVSS", "polyreactivity (PSR sort gate)": "low polyreactivity"}
{"sequence": "QVQLVESGGGLVQAGGSLRLSCAASGGIFIRYAMGSYRQAPGKERELVAAITQSGAGTNYADSVKGRFTISRDNAKNTVYLQMNSLKPEDTAVYYCAATGLPGYYAYDYWGQGTQVTVSS", "polyreactivity (PSR sort gate)": "low polyreactivity"}
{"sequence": "QVQLVESGGGLVQAGGSLRLSCAASGGIFKQYAMGWYRQAPGKERELVAAITWSGGSTYYADSVKGRFTISRDYAKNTVYLQMNSLKPEDTAVYYCAKDYVLFQYVDFQDDDYWGQGTQVTVSS", "polyreactivity (PSR sort gate)": "low polyreactivity"}
{"sequence": "QVQLVESGGGLVQAGGSLRLSCAASGGIFLPYAMGWYRQAPGKERELVAGITSVGSTYADSVKGRFTISRDNAKNTVYLQMNSLKPEDTAVYYCNADIYFVEYDYWGQGTQVTVSS", "polyreactivity (PSR sort gate)": "low polyreactivity"}
{"sequence": "QVQLVESGGGLVQAGGSLRLSCAASGGIFNYYAMGWYRPAPGKVRELVAAISASGGSTYYADSVKGRFTISRDNAKNTVYLQMNSLIQEDTAVYYCAAGLPYGYGYDYWGQGTQVTVSS", "polyreactivity (PSR sort gate)": "low polyreactivity"}
{"sequence": "QVQLVESGGGLVQAGGSLRLSCAASGGIFNYYAMGWYRQAPGKDRELVAAISASGGSTYYADSVKGRFTISRDYAKNTVYLQMNSLKPEDTAVYYCASGLPYGYGYDYWGQGTQVTVSS", "polyreactivity (PSR sort gate)": "low polyreactivity"}
{"sequence": "QVQLVESGGGLVQAGGSLRLSCAASGGIFPFNGMGWYRQAPGKERELVAAISSGGRTYYADSVKGRFTISRDNAKNTVYLQMNSLKPEDTAVYYCAARTSRYYYYPYAFYWGQGTQVTVSS", "polyreactivity (PSR sort gate)": "high polyreactivity"}
{"sequence": "QVQLVESGGGLVQAGGSLRLSCAASGGIFPGYAMGWYRQAPGKETELVAAISGSGSSTYYADSVKGRFTISRDHAKNTVYVQMNSLKPEDTAVYYCNVVTRVLPTRFDYWGQGTQVTVSS", "polyreactivity (PSR sort gate)": "high polyreactivity"}
{"sequence": "QVQLVESGGGLVQAGGSLRLSCAASGGIFPPNVMGWYRPAPGKETELVAANSRSGGSTYYADSVKGRFTISRDNAKNTVYLQMNSLTAEDTAVYYCAAANTQRGFRYDYWGQGTQVTVSS", "polyreactivity (PSR sort gate)": "high polyreactivity"}
{"sequence": "QVQLVESGGGLVQAGGSLRLSCAASGGIFPYYAMGWYRQAPGKERELVAGISQNDGRTYYADSVKGRFTISRDNAKNTVYLQMNSLIPDDTAVYYCATEYWYPRYGYWGQGTQVTVSS", "polyreactivity (PSR sort gate)": "low polyreactivity"}
{"sequence": "QVQLVESGGGLVQAGGSLRLSCAASGGIFQGYAMGWYRQAPGKERELVAAISRSGGRTYYADSVKGRFTISRDNAKKTVYLQMNSLKPEDTSVYYCAADIRLSKYDYRGQGTQVTVSS", "polyreactivity (PSR sort gate)": "high polyreactivity"}
{"sequence": "QVQLVESGGGLVQAGGSLRLSCAASGGIFQWYAMGWYRQAPGKVREFVAAITRRGGSTYYAYSVKGRFTISRDNAKNTVYLQMNSLKPEDTAVYYCAARPWADFDYWGQGTQVTVSS", "polyreactivity (PSR sort gate)": "low polyreactivity"}
{"sequence": "QVQLVESGGGLVQAGGSLRLSCAASGGIFRANALGWYRQAPGKERELVAAIRYSGGGTYYADSVKGRFTISRDNAKNTVYLQMNSLKPEDTAVYYCAARYRGRGYVAYDYWGQGTQVTVSS", "polyreactivity (PSR sort gate)": "high polyreactivity"}
{"sequence": "QVQLVESGGGLVQAGGSLRLSCAASGGIFRHNAMGWYRQAPGKEREFVAAISRSGGNTYYADSVKGRFTISRDNAKNTVYLQMNSLKPEDTAVYYCNKIEYDSWADHVYWGQGTQVTVSS", "polyreactivity (PSR sort gate)": "low polyreactivity"}
{"sequence": "QVQLVESGGGLVQAGGSLRLSCAASGGIFRKYAMGWDRQAPGKERDLVAAITSGGGTYYADSVKGRFTISRDNAKNTVLLQMNSQKPEDTAVYYCAARTLYVARRRPYYYWGQGTLVTVSS", "polyreactivity (PSR sort gate)": "high polyreactivity"}
{"sequence": "QVQLVESGGGLVQAGGSLRLSCAASGGIFRVYAMGWYRQAPGKERELVAAISRSGSSTYYAVSVKGRFTISRDNAKNTVYLQMNSLKPEDTAVYYCNAYSQYWLGNNYWGEGTQVTVSS", "polyreactivity (PSR sort gate)": "high polyreactivity"}
{"sequence": "QVQLVESGGGLVQAGGSLRLSCAASGGIFRYYAMGWYRQAPGKERELVAAITSSGTSTYYADSVKGRFTISRDNAKNTVYLQMNSLKPEDTAVYYCAATRTKRKFDYWGQGTQVTVSS", "polyreactivity (PSR sort gate)": "high polyreactivity"}
{"sequence": "QVQLVESGGGLVQAGGSLRLSCAASGGIFSENALGWYRQAPGKERELVAVITTSGGSTYYADSVKGRFTISRDNAKNTVYLQMNSLKPEDTAVYYCAADVLSWEYDYWGQGTQVTVSS", "polyreactivity (PSR sort gate)": "low polyreactivity"}
{"sequence": "QVQLVESGGGLVQAGGSLRLSCAASGGIFSGNDMGWYRHAPGKESEFVAAISWSGGSTYYADSVKGRFTISRDNAKNTVYLQMNSLKPEDTAVYYCAAAHYFLGPQGASFYYWGQGTQVTVSS", "polyreactivity (PSR sort gate)": "low polyreactivity"}
{"sequence": "QVQLVESGGGLVQAGGSLRLSCAASGGIFSVYAMGWYRQAPGKERELVAAITTSGGSTYYADSVKGRFTISRDNAKNTVYLQMNSLKPEDTAVYYCAADYPPTFYYWYEEYEYWGQGTQVTVSS", "polyreactivity (PSR sort gate)": "low polyreactivity"}
{"sequence": "QVQLVESGGGLVQAGGSLRLSCAASGGIFTYYAMGWYRQAPGKERELVAAITWSGGSTYYADSVKGRFTISRDTAKNTVYLQMNSLKPEDTAVYYCNAVVLHVTTDNSTFTTDDYWGQGTQLTVSS", "polyreactivity (PSR sort gate)": "low polyreactivity"}
